What was measured:
[1] = target: the molecule itself; assay: SEC-MALS; Shodex KW803 column, 20 mM Hepes pH 7.4, 100 mM NaCl; protein injected at 4 mg/mL (121 uM)
[2] = target: the molecule itself; assay: SEC-MALS; Shodex KW803 column, 20 mM citrate buffer pH 3.6, 150 mM NaCl; protein injected at 4 mg/mL (121 uM)

B1: ATV^ORF273, virion protein of the Acidianus two-tailed virus (recombinant, C-terminal hexa-histidine tag) (natural protein)
chain: MGEKITEEREFQSISEIPEEEIDATNDEEKLADIVENEIEKEIRKSKTRKCKTIENFYYYILRDGKIYPASDYDIEVEKGKRSANDIYAFVETDVTRDFDEFLFDIDYGLPSISDILKFYLEKAGFRIANEVPTPNLKYYIHAVVEFGEDRPQYLAVNIYDIDSLARALRIPQIVEQKLGNKPRTITADEFNDIERIVAEEQPILAGYTYDEALRIPYHYYVDHNNSFKDDALKIAHAYLQLFPTPYQVCYEWKARWFNKIDCLKLERLKPSS
notes: ATV ORF273, virion protein of Acidianus two-tailed virus, UniProt Q3V4T6; native molar mass 32154 Da, recombinant protein 32977 Da; The printed masses (32154 Da native, 32977 Da recombinant) fit the whole ORF plus a His6 tag that is still on the protein; no cleavage of the tag is described; Oligomeric state depends on pH: tetramer at pH 7.4 and 8.5, dimer at pH 3.6; The models hold residues …
With B1 the “stoichiometry N” value [1] was 4 and the “stoichiometry N” value [2] was 2.

Reference: publication PMC3466262, “Crystal Structure of ATV^ORF273, a New Fold for a Thermo- and Acido-Stable Protein from the Acidianus Two-Tailed Virus” (PLoS ONE, 2012)
